Assay results published in patent US20210395743, “SELF-ASSEMBLING NUCLEIC ACID SURFACES FOR BIOSENSOR APPLICATIONS” (INSTITUT NATIONAL DE LA RECHERCHE SCIENTIFIQUE, published 2021).

Target: PDGF-BB (UniProt P01127 P01127:82-190)
Assay: SPR; aptamer on DNA honeycomb on gold; phosphate buffer 137 mM NaCl, 2.7 mM KCl, 1 mM MgCl2, pH 7.4
Settings: chain copies: 2 (homodimer, inferred)
Method: The sensing surface was then exposed to the Platelet-derived growth factor aptamer which had been modified, as in Table III (SEQ ID NO:16), to include a 25 bp poly A tail at a concentration of 50 nM in 10 mM Tris pH 7.4 1 M NaCl 1 mM EDTA and incubated for an hour.
The sensing surface was washed with 10.1 mM Na₂HPO₄, 1.8 mM KH₂PO₄, 137 mM NaCl and 2.7 mM KCl, 1 mM MgCl2, pH 7.4. Detection of PDGF was performed in the same buffer where the surface was exposed to increasing concentrations of the ligands and response was recorded.

Sequence of PDGF-BB (P01127 82-190, one chain of several): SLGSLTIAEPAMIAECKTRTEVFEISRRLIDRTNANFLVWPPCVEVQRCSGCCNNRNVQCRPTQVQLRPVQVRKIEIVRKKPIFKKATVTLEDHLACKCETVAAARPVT

B1: PDGF-BB aptamer with 25-nt poly A tail (SEQ ID NO: 16), on honeycomb DNA scaffold (ssDNA)
DNA: CACAGGCTACGGCACGTAGAGCATCACCATGATCCTGTGAAAAAAAAAAAAAAAAAAAAAAAAA
  Kd: 28 nM
